Measurements published in patent publication US5851983.
No end group written: not given here.

Target: Polymorphonuclear leukocyte elastase from human sputum (EPC Co.; Funakoshi Yakuhin) (human) (UniProt P08246)

B1: by-product oligomer formed in Example 17 (peptide)
chain: RKPGKCPVTYGQCLMLNPPNFCEMDGQCKRDLKCCMGMCGKSCVSPVKA
modifications: also: oligomer formed during refolding, number of chains and linkages not given here
- IC50: 300 nM
